Data: patent publication US20200347137A1 (SYSTIMMUNE, published 2020)
Positions count from the first letter of the chain named.

B1: PL221G5 IgG1 null (antibody, V domains shown)
VH: EVQLLESGGGLVQPGGSLRLSCAASGFSFSSGYDMCWVRQAPGKGLEWIACIAAGSAGITYDANWAKGRFTISRDNSKNTLYLQMNSLRAEDTAVYYCARSAFSFDYAMDLWGQGTLVTVSS
VL: DIQMTQSPSTLSASVGDRVTITCQASQSISSHLNWYQQKPGKAPKLLIYKASTLASGVPSRFSGSGSGTEFTLTISSLQPDDFATYYCQQGYSWGNVDNVFGGGTKVEIKR
B2: PL221G5 mAb (antibody, V domains shown)
VH: B1 VH
VL: DIQMTQSPSTLSASVGDRVTITCQASQSISSHLNWYQQKPGKAPKLLIYKASTLASGVPSRFSGSGSGTEFTLTISSLQPDDFATYYCQQGYSWGNVDNVFGGGTKVEIK
notes: Anti-PD-L1 clone tested in mAb format
B3: PL230C6 mAb (antibody, V domains shown)
VH: QSVEESGGGLVQPGGSLRLSCTASGIDLNTYDMIWVRQAPGKGLEWVGIITYSGSRYYANWAKGRFTISKDNTKNTVYLQMNSLRAEDTAVYYCARDYMSGSHLWGQGTLVTVSS
VL: AYDMTQSPSSVSASVGDRVTIKCQASEDIYSFLAWYQQKPGKAPKLLIHSASSLASGVPSRFSGSGSGTDFTLTISSLQPEDFATYYCQQGYGKNNVDNAFGGGTKVEIK
notes: also called PL23006
B4: PL231H2 mAb (antibody, V domains shown)
VH: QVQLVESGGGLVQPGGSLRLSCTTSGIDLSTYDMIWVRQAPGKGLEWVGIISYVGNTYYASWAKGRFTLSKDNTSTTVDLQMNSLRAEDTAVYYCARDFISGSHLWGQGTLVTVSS
VL: B3 VL with K22N, D28S, Y30S, A34S, H49F, S53T, G93S, N95S
notes: as for B2
B5: PL004B9 Fc-scFv (Fc fusion, not shown: a dimerising Fc or GST; small tags and cut ends)
scFv: EVQLVESGGGLVQPGGSLRLSCTVSGIDLSVINMGWVRQAPGKGLEWIGTITYVGNTYYASWAKGRFTISKTSTTVDLKITSPTTEDTAVYYCARESGTIYYSYFNLWGQGTLVTVSSGGGGSGGGGSGGGGSGGGGSAFELTQSPSSLSASVGDRVTIKCQASESISNYLSWYQQIPGKVPKLLIYYASNLASGVPSRFSGSGSGTDFTLTISSLQPEDVATYYCQSYYGGGSAYTFGGGTKVEIK
notes: scFv at the C-terminus of an Fc
B6: PL004B9 mAb (antibody, V domains shown)
VH: EVQLVESGGGLVQPGGSLRLSCTVSGIDLSVINMGWVRQAPGKGLEWIGTITYVGNTYYASWAKGRFTISKTSTTVDLKITSPTTEDTAVYYCARESGTIYYSYFNLWGQGTLVTVSS
VL: AFELTQSPSSLSASVGDRVTIKCQASESISNYLSWYQQIPGKVPKLLIYYASNLASGVPSRFSGSGSGTDFTLTISSLQPEDVATYYCQSYYGGGSAYTFGGGTKVEIK
notes: as for B2
B7: PL221G5 Fc-scFv (Fc fusion)
scFv: EVQLLESGGGLVQPGGSLRLSCAASGFSFSSGYDMCWVRQAPGKGLEWIACIAAGSAGITYDANWAKGRFTISRDNSKNTLYLQMNSLRAEDTAVYYCARSAFSFDYAMDLWGQGTLVTVSSGGGGSGGGGSGGGGSGGGGSDIQMTQSPSTLSASVGDRVTITCQASQSISSHLNWYQQKPGKAPKLLIYKASTLASGVPSRFSGSGSGTEFTLTISSLQPDDFATYYCQQGYSWGNVDNVFGGGTKVEIK
notes: scFv at the C-terminus of an Fc; The Fc part is not specified; not shown: The Fc part and the linker joining it to the scFv
B8: PL230C6 Fc-scFv (Fc fusion)
scFv: QSVEESGGGLVQPGGSLRLSCTASGIDLNTYDMIWVRQAPGKGLEWVGIITYSGSRYYANWAKGRFTISKDNTKNTVYLQMNSLRAEDTAVYYCARDYMSGSHLWGQGTLVTVSSGGGGSGGGGSGGGGSGGGGSAYDMTQSPSSVSASVGDRVTIKCQASEDIYSFLAWYQQKPGKAPKLLIHSASSLASGVPSRFSGSGSGTDFTLTISSLQPEDFATYYCQQGYGKNNVDNAFGGGTKVEIK
notes: scFv at the C-terminus of an Fc; The Fc part is not specified; also called PL23006; not shown: The Fc part and the linker joining it to the scFv
B9: Fc-PD224D1 scFv IgG1 null (Fc fusion, not shown: a dimerising Fc or GST; small tags and cut ends)
scFv: EVQLVESGGGLVQPGGSLRLSCTASGFSLSSYAMSWVRQAPGKGLEYIGYIGDTTGIAYASWANGRFTISKDNTKNTVDLQMNSLRAEDTAVYYCARGWSYLDIWGQGTLVTVSSGGGGSGGGGSGGGGSGGGGSALVMTQSPSSLSASVGDRVTITCQASQNIYSNLAWYQQKPGKVPKLLIYQASTLASGVPSRFSGSGYGTDFTLTISSLQPEDVATYYCQGGYYSAALNTFGGGTKVEIK
notes: a component control of the bispecific antibody

Each binder was assayed against PD-L1 on CHO-PD-L1 cell line (human, UniProt Q9NZQ7 19-290) (assay: cell-based or functional assay).
Chain of PD-L1 on CHO-PD-L1 cell line (Q9NZQ7 19-290): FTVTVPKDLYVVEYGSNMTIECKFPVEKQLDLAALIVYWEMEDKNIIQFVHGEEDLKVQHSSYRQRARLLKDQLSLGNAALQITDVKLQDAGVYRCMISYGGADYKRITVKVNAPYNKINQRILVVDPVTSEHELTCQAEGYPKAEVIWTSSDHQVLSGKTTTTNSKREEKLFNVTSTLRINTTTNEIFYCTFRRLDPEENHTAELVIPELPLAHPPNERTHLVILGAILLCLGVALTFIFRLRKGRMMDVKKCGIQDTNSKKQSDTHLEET

B1 was tested, and the “EC50 (read off the curve), NFAT-luciferase reporter, Jurkat PD-1 cells with CHO-PD-L1 cells” value was about 300 pM.

What follows are binders tested against T1, PD-L1 recombinant protein (human, UniProt Q9NZQ7 19-238, limits assumed) (assay: ForteBio Octet RED96, PD-L1 immobilised, antibody in solution).
T1 construct: also called PD-L1 antigen
T1 sequence (Q9NZQ7 19-238 limits assumed): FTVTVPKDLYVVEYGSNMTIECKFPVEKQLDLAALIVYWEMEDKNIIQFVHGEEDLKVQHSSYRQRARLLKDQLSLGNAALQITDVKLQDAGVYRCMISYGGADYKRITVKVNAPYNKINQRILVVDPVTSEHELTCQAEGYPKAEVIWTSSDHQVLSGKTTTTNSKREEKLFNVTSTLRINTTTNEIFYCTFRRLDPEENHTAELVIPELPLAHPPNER
Text: The antigen was immobilized on the sensor chip surface and the tested antibodies were flown over the immobilized antigens.

Point of comparison: B6, Kd 1370 pM. Against it:
- B2 — 2.8-fold lower, 483 pM
- B3 — 1.8-fold lower, 769 pM
- B4 — 1.8-fold lower, 781 pM
- B5 — within 1.5-fold, 1540 pM
- B7 — 3.3-fold lower, 412 pM
- B8 — 1.6-fold lower, 868 pM

Point of comparison: B6, koff 0.000695 s⁻¹. Against it:
- B2 — 2.5-fold lower, 0.000276 s⁻¹
- B3 — within 1.5-fold, 0.000468 s⁻¹
- B4 — 1.8-fold lower, 0.000391 s⁻¹
- B5 — within 1.5-fold, 0.000471 s⁻¹
- B7 — 4.1-fold lower, 0.000171 s⁻¹
- B8 — 1.9-fold lower, 0.000362 s⁻¹

Point of comparison: B8, kon 418000 M⁻¹ s⁻¹. Against it:
- B2 — within 1.5-fold, 572000 M⁻¹ s⁻¹
- B3 — within 1.5-fold, 609000 M⁻¹ s⁻¹
- B4 — within 1.5-fold, 501000 M⁻¹ s⁻¹
- B5 — within 1.5-fold, 307000 M⁻¹ s⁻¹
- B6 — within 1.5-fold, 508000 M⁻¹ s⁻¹
- B7 — within 1.5-fold, 414000 M⁻¹ s⁻¹

What follows are binders tested against T2, PD-1 antigen expressed on the surface of cells (human, UniProt Q15116 25-288) (assay: Flow cytometry on CHO cells expressing PD-1, Alexa Fluor 647 anti-human secondary).
T2 construct: whole, on cells; also called PD-1 receptor; CHO cell line expressing PD-1 antigen
T2 sequence (Q15116 25-288): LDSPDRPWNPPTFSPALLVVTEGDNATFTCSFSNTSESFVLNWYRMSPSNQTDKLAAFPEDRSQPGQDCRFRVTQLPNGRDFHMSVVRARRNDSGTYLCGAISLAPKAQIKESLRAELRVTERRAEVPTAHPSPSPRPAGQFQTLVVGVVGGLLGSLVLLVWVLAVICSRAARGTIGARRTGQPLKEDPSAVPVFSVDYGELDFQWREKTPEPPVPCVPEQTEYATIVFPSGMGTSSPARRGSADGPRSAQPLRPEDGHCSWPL
Description: (§1) Binding of the bispecific antibodies and their components to PD-1 antigen expressed on the surface of CHO cell line was assessed using FACS method. The bispecific antibodies were incubated with CHO cell line expressing PD-1 antigen and then detected with secondary anti-human antibodies directly conjugated to Alexa Fluor 647 fluorochrome. Cellular binding of the test antibodies was analyzed on a flow cytometer BD LSRFortessa.

B9 was tested, and the “EC50 (read off the curve)” value was about 1000 pM.

Each binder was assayed against T2, PD-1 antigen expressed on the surface … (assay: Flow cytometry on CHO cells expressing PD-1, Alexa Fluor 647 anti-human secondary. The value is printed beside the curves without a name; the text speaks of a KD. It is assigned to the lower, right curve (triangles) by its position.).
Description: as §1

B9 was tested, and the Kd was 1040 pM.
